# Measurements published in patent US4508828A, “Bioassay of parathyroid hormone” (Immuno Nuclear Corporation, priority 1983, dated 1985).
# Entries after “also recorded” stand apart in the source; their conditions may differ.
# T1: adenylate cyclase-coupled PTH receptors (Rattus norvegicus, UniProt P25961)
# T1 construct: 96-well tissue culture plate containing the rat osteogenic sarcoma cells; endogenous in cells; host or cells: rat osteogenic sarcoma cells (obtained by the methods of Partridge et al. 1981 and Majeska et al. 1980)
# T1 sequence (P25961 27-591): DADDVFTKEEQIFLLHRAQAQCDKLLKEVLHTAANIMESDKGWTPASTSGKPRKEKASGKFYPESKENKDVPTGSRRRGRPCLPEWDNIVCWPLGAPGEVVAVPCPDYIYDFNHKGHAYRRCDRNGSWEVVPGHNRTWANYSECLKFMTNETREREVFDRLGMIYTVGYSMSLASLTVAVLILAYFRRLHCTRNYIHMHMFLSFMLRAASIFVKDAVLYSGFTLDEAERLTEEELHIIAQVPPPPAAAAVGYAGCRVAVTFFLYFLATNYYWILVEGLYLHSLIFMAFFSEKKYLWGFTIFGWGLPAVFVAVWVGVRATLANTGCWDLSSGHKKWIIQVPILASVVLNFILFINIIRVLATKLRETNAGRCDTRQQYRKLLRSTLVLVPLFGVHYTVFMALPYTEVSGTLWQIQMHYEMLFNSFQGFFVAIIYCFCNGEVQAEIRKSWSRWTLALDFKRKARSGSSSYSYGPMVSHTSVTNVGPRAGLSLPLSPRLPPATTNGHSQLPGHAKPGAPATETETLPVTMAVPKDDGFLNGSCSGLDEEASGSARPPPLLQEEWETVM
# Target: T1, adenylate cyclase-coupled PTH receptors
# Test: PTH bioassay: cAMP generation in rat osteogenic sarcoma cell culture, cAMP by radioimmunoassay
# Type: cell-based
# Settings: for bioactivity (cAMP generation): standards of the peptide alone, FIG. 3; for cell culture response, human versus bovine bioactive PTH: hPTH^1-34 compared with bPTH^1-34, FIG. 2; for suppression of cAMP generation by serum in the bioassay medium: FIG. 5
# Method: Rat osteogenic sarcoma cells are maintained in culture in Dulbecco's modified Eagle medium ("DMEM"), disclosed in R. Dulbecco, VIROLOGY, 8: 396 (1959), J. Smith, et al., VIROLOGY, 12: 185-196 (1960), Tissue Culture Standards Committee, IN VITRO, 6(2): 93 and available from Gibco, Grand Island, N.Y., containing 1% fetal calf serum, 9% heat-inactivated horse serum, 100 units/ml of penecilin G and 100 μg/ml streptomycin sulfate in sodium sulfate and normal saline solution, available as a concentrate from Gibco, supra. Cells are maintained in this medium in a humidified atmosphere of 5% carbon dioxide and 95% air at 37° C. This rat osteogenic sarcoma cell culture can be obtained according to the methods set forth in N. Partridge, et al., "Functional Properties Of Hormonally Responsive Cultured Normal And Malignant Rat Ostoblastic Cells," ENDOCRINOLOGY, 108: 213-219 (1981), which is incorporated in its entirety herein by reference thereto. This method of obtaining the cell culture is further described in R. Majeska, et al., "Parathyroid Hormone--Responsive Clonal Cell Lines From Rat Osteosarcoma," ENDOCRINOLOGY, 107: 1494-1503 (1980) and R. Majeska, "Maintenance Of Parathyroid Hormone Response in Clonal Rat Osteosarcoma Cell Lines," EXP. CELL RES., 111: 465 (1978), also incorporated in their entirety herein by reference thereto.
# Cells are subcultured from confluent monolayers by removing the culture medium, rinsing the cell layer with Dulbecco's phosphate buffered saline, 0.2 g/l KCl, 0.2 g/l KH2 PO4, […], and Na2 HPO4.7H2 O and available from Gibco, supra, and adding trypsin/EDTA, 0.5 g trypsin (1:250) and 0.2 g EDTA-4Na/l Hank's balanced salt solution without CaCl2, MGCL2.6H2 O and MgSO4.7H2 O and available from Gibco, supra, to cover the cell layer. After 1 minute at 20°-25° C., the trypsin/EDTA is removed and the cells are incubated for 2-3 minutes at 37° C. The cells are resuspended in DMEM and one-fifth to one-tenth of the cells are added to a culture flask of equal size.
# For use in the bioassay of PTH, the above cell suspension is diluted with 4 volumes of DMEM and 0.1 ml of the suspension is pipetted into each well of a 96-well tissue culture plate available from Becton Dickinson Labware, Oxnard, Calif. The cells are cultured in the same atmosphere as above and are ready for use in the bioassay in 24-28 hours.
# 15. The dried eluates are dissolved in 0.6 ml of bioassay medium at 20°-25° C., said bioassay medium consisting of 0.1% glucose, 1% BSA, 1 mM methylisobutylxanthine, and 0.005% phenol red in Dulbecco's phosphate buffer saline (pH 7.3 or within range of about 7-7.5).
# To perform the bioassay of PTH, the medium is removed from all wells of the 96-well tissue culture plate containing the rat osteogenic sarcoma cells by inversion of the plate and blotting of any remaining drops of medium. The plate is replaced upright and 100 μl of the redissolved N-terminal affinity column eluates are added to each of 4 wells of the plate. The plate is incubated at 20°-25° C. for 30 minutes. At this time, the plate is inverted and blotted to remove all remaining medium, replaced upright and placed on ice.
# Each well is washed 3 times by addition of 300 μl of ice cold 0.85% saline followed by inversion and […]. After the third saline wash, 200 μl of ice cold 95% ethyl alcohol containing 0.02M HCl (EtOH/HCl) is added to each well and the plate is incubated at -20° C. for 16-24 hours in order to extract the cAMP from the cells. At the end of this extraction, the EtOH/HCl is removed from each well with a pipet and rinsed with an additional 200 μl of EtOH/HCl. The rinse is combined with the original extract and the solution is dried. An appropriate device for drying the EtOH/HCl samples is a Speed-Vac Concentrator/Evaporator, available from Savant Instruments, Inc., Hicksville, N.Y. The amount of cAMP extracted from the cell layer in each well is quantitated using a radioimmunoassay for cAMP. […]
molecule,measurement,setting,value
"(norleucine^8,18)bPTH^3-34 amide",antagonism of bPTH^1-84 (inhibition of cAMP generation),"bPTH^1-84 added to the standards, FIG. 4",very strong antagonist
same,bioactivity (cAMP generation),,virtual absence of bioactivity
same,bioactivity (cAMP generation),listed as hPTH^3-34 amide,not bioactive
bPTH^1-34: bovine parathyroid hormone fragment 1-34,"cell culture response, human versus bovine bioactive PTH",,respond similarly; also recorded: very close correlation of response
"hPTH^1-34: human parathyroid hormone fragment 1-34, available from Peninsula Laboratories","cell culture response, human versus bovine bioactive PTH",,respond similarly; also recorded: very close correlation of response
"hPTH^37-84: human parathyroid hormone fragment 37-84 (LGAPLAPRDAGSQRPRKKEDNVLVESHEKSLGEADKADVNVLTKAKSQ; Parathyroid hormone; UniProt P01270 68-115, looked up, fragment)",bioactivity (cAMP generation),,not bioactive; also recorded: virtual absence of bioactivity
"hPTH^65-84: human parathyroid hormone fragment 65-84 (KSLGEADKADVNVLTKAKSQ; Parathyroid hormone; UniProt P01270 96-115, looked up, fragment)",bioactivity (cAMP generation),,not bioactive; also recorded: virtual absence of bioactivity
"PTH^1-84: parathyroid hormone 1-84 standards of the bioassay (bovine PTH 1-84 standard) (protein, UniProt P01268 32-115, looked up, Parathyroid hormone) Parathyroid hormone: AVSEIQFMHNLGKHLSSMERVEWLRKKLQDVHNFVALGASIAYRDGSSQRPRKKEDNVLVESHQKSLGEADKADVDVLIKAKPQ",suppression of cAMP generation by serum in the bioassay medium,10% serum (fetal calf serum) in bioassay medium,50 fold
same,suppression of cAMP generation by serum in the bioassay medium,50% serum (human serum) in bioassay medium,100 fold
